From patent US20180044393A1 (INSERM INSTITUT NATIONAL DE LA SANT ET DE LA RECHERCHE M …, published 2018)

Tests used:
[1] = target: T1, Orexin receptor-1 (human OX1R, wild type) stably expressed in CHO-S cells (human, UniProt O43613 1-425); experiment: cell-based or functional assay
T1 sequence: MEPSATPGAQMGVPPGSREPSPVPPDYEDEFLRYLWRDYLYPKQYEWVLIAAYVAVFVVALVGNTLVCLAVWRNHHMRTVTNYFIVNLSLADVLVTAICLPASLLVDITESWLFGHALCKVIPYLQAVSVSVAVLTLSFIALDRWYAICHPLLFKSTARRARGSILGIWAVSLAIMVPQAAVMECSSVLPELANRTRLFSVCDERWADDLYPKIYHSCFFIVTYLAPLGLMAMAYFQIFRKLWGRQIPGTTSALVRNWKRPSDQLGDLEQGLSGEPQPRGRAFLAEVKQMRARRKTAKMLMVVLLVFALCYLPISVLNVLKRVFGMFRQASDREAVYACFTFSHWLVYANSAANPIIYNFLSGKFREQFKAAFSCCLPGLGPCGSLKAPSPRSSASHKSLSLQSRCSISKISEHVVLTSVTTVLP

[2] = target: T1, Orexin receptor-1 (human OX1R, wild …); experiment: competitive inhibition of 125I-OxA binding on CHO-S cells expressing human OX1R
Description: CHO—S cells expressing recombinant native or mutated OX1R were grown as previously described (El Firar et al., 2009) and maintained at 37° C. in a humidified 5% CO₂/air incubator. ¹²⁵I-orexia-A (74 TBq/mmol) was prepared as previously described (El Firar et al., 2009). […] Free peptides were removed by 2 cell washing cycles with PBS. […] Data were analyzed using the GraphPad software (http://www.graphpad.com).

B1: OxB 7-28 (peptide)
peptide: LQGRLQRLLQASGNHAAGILTM
notes: synthetic deletion mutant of OxB; also called deletion of the first six residues of OxB
Apoptosis induction EC50 [1]: 2180 nM
IP3 production EC50 [1]: 1510 nM
IC50 [2]: 388 nM
